Tested on: Escherichia coli TOP10
Assay: shrunken log2 fold change of peptide-encoding DNA abundance (4.5 h post-induction vs induction); higher = less antimicrobial activity (less host growth inhibition)
Conditions: time post-induction: 4.5 h; library: site-saturation at positions 5, 18, 19, 20
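Further: peptides expressed intracellularly from a pBAD plasmid library in pooled LB shake-flask culture, induced with 0.3% L-arabinose, DNA abundance read by NGS, three biological replicates, DESeq2 with apeglm shrinkage.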

Row | Sequence | shrunken log2 fold change
1 | RRIRQRPPRLPRPRPRPIPLPRP | -0.182
2 | RRIRQRPPRLPRPRPRPIRKPRP | -0.0469
3 | RRIRQRPPRLPRPRPRPISDPRP | 0.0109
4 | RRIRQRPPRLPRPRPRPIVLPRP | -0.132
5 | RRIRQRPPRLPRPRPRPIYDPRP | -0.213
6 | RRIRQRPPRLPRPRPRPIYHPRP | -0.179
7 | RRIRQRPPRLPRPRPRPIYYPRP | -1.26
8 | RRIRQRPPRLPRPRPRPKACPRP | 0.0193
9 | RRIRQRPPRLPRPRPRPKCGPRP | 0.354
10 | RRIRQRPPRLPRPRPRPKCPPRP | -0.0714
11 | RRIRQRPPRLPRPRPRPKCWPRP | 0.621
12 | RRIRQRPPRLPRPRPRPKDDPRP | -0.0913
13 | RRIRQRPPRLPRPRPRPKDFPRP | -0.00088
14 | RRIRQRPPRLPRPRPRPKDLPRP | -0.0616
15 | RRIRQRPPRLPRPRPRPKDPPRP | -0.000135
16 | RRIRQRPPRLPRPRPRPKDQPRP | 0.0983
17 | RRIRQRPPRLPRPRPRPKEIPRP | -0.223
18 | RRIRQRPPRLPRPRPRPKFEPRP | -0.0683
19 | RRIRQRPPRLPRPRPRPKFPPRP | 0.118
20 | RRIRQRPPRLPRPRPRPKHPPRP | -0.0928
21 | RRIRQRPPRLPRPRPRPKHQPRP | -0.386
22 | RRIRQRPPRLPRPRPRPKIFPRP | 0.041
23 | RRIRQRPPRLPRPRPRPKIIPRP | -0.367
24 | RRIRQRPPRLPRPRPRPKMFPRP | 0.106
25 | RRIRQRPPRLPRPRPRPKMIPRP | -0.231

Row | Sequence | shrunken log2 fold change
26 | RRIRQRPPRLPRPRPRPKNIPRP | -0.652
27 | RRIRQRPPRLPRPRPRPKPLPRP | 0.176
28 | RRIRQRPPRLPRPRPRPKPQPRP | -0.0342
29 | RRIRQRPPRLPRPRPRPKQFPRP | 0.102
30 | RRIRQRPPRLPRPRPRPKSWPRP | 0.19
31 | RRIRQRPPRLPRPRPRPKTLPRP | -0.156
32 | RRIRQRPPRLPRPRPRPKWMPRP | -0.131
33 | RRIRQRPPRLPRPRPRPKWVPRP | 0.0809
34 | RRIRQRPPRLPRPRPRPLARPRP | 0.26
35 | RRIRQRPPRLPRPRPRPLCNPRP | -0.178
36 | RRIRQRPPRLPRPRPRPLEMPRP | 0.155
37 | RRIRQRPPRLPRPRPRPLEYPRP | -0.082
38 | RRIRQRPPRLPRPRPRPLFMPRP | -1.12
39 | RRIRQRPPRLPRPRPRPLINPRP | -0.305
40 | RRIRQRPPRLPRPRPRPLLRPRP | -0.0709
41 | RRIRQRPPRLPRPRPRPLMFPRP | -0.137
42 | RRIRQRPPRLPRPRPRPLNHPRP | 0.133
43 | RRIRQRPPRLPRPRPRPLNIPRP | -0.315
44 | RRIRQRPPRLPRPRPRPLNPPRP | -0.303
45 | RRIRQRPPRLPRPRPRPLNQPRP | -0.155
46 | RRIRQRPPRLPRPRPRPLPIPRP | 0.231
47 | RRIRQRPPRLPRPRPRPLPPPRP | 1.09
48 | RRIRQRPPRLPRPRPRPLPTPRP | 0.131
49 | RRIRQRPPRLPRPRPRPLPYPRP | -0.202
50 | RRIRQRPPRLPRPRPRPLRFPRP | -0.041

Row | Sequence | shrunken log2 fold change
51 | RRIRQRPPRLPRPRPRPLRKPRP | 0.356
52 | RRIRQRPPRLPRPRPRPLRTPRP | 0.691
53 | RRIRQRPPRLPRPRPRPLSNPRP | -0.109
54 | RRIRQRPPRLPRPRPRPLSTPRP | 0.175
55 | RRIRQRPPRLPRPRPRPLTDPRP | 0.132
56 | RRIRQRPPRLPRPRPRPLTGPRP | -0.0104
57 | RRIRQRPPRLPRPRPRPLVCPRP | 0.0584
58 | RRIRQRPPRLPRPRPRPLWFPRP | -0.0512
59 | RRIRQRPPRLPRPRPRPLYYPRP | 0.614
60 | RRIRQRPPRLPRPRPRPMCGPRP | 0.31
61 | RRIRQRPPRLPRPRPRPMCKPRP | -0.0652
62 | RRIRQRPPRLPRPRPRPMDIPRP | -0.155
63 | RRIRQRPPRLPRPRPRPMEIPRP | -0.0109
64 | RRIRQRPPRLPRPRPRPMFEPRP | 0.118
65 | RRIRQRPPRLPRPRPRPMFKPRP | -0.572
66 | RRIRQRPPRLPRPRPRPMGNPRP | -0.136
67 | RRIRQRPPRLPRPRPRPMHFPRP | 0.169
68 | RRIRQRPPRLPRPRPRPMIVPRP | 0.000655
69 | RRIRQRPPRLPRPRPRPMLAPRP | 0.0967
70 | RRIRQRPPRLPRPRPRPMLNPRP | 0.014
71 | RRIRQRPPRLPRPRPRPMMGPRP | -0.107
72 | RRIRQRPPRLPRPRPRPMNSPRP | -0.468
73 | RRIRQRPPRLPRPRPRPMPDPRP | -0.0292
74 | RRIRQRPPRLPRPRPRPMSLPRP | -0.13
75 | RRIRQRPPRLPRPRPRPMSRPRP | -0.0221

Row | Sequence | shrunken log2 fold change
76 | RRIRQRPPRLPRPRPRPMVGPRP | -0.00963
77 | RRIRQRPPRLPRPRPRPMVMPRP | 0.0852
78 | RRIRQRPPRLPRPRPRPMYEPRP | -0.01
79 | RRIRQRPPRLPRPRPRPMYNPRP | -0.545
80 | RRIRQRPPRLPRPRPRPMYSPRP | -0.746
81 | RRIRQRPPRLPRPRPRPNAWPRP | 0.0879
82 | RRIRQRPPRLPRPRPRPNCDPRP | 0.0233
83 | RRIRQRPPRLPRPRPRPNCIPRP | 0.133
84 | RRIRQRPPRLPRPRPRPNCSPRP | -0.0334
85 | RRIRQRPPRLPRPRPRPNDEPRP | 0.0763
86 | RRIRQRPPRLPRPRPRPNDRPRP | -0.16
87 | RRIRQRPPRLPRPRPRPNELPRP | -0.24
88 | RRIRQRPPRLPRPRPRPNEVPRP | -0.00511
89 | RRIRQRPPRLPRPRPRPNFHPRP | -0.232
90 | RRIRQRPPRLPRPRPRPNHYPRP | -0.36
91 | RRIRQRPPRLPRPRPRPNITPRP | -0.495
92 | RRIRQRPPRLPRPRPRPNKWPRP | -0.0433
93 | RRIRQRPPRLPRPRPRPNLGPRP | 0.0673
94 | RRIRQRPPRLPRPRPRPNMLPRP | -0.285
95 | RRIRQRPPRLPRPRPRPNMNPRP | -0.528
96 | RRIRQRPPRLPRPRPRPNNAPRP | -0.216
97 | RRIRQRPPRLPRPRPRPNQWPRP | 0.0886
98 | RRIRQRPPRLPRPRPRPNSYPRP | -0.225
99 | RRIRQRPPRLPRPRPRPNTPPRP | -0.0687
100 | RRIRQRPPRLPRPRPRPNTRPRP | -0.0754

Row | Sequence | shrunken log2 fold change
101 | RRIRQRPPRLPRPRPRPNTSPRP | -0.292
102 | RRIRQRPPRLPRPRPRPNWMPRP | 0.0507
103 | RRIRQRPPRLPRPRPRPNWSPRP | 0.148
104 | RRIRQRPPRLPRPRPRPNYMPRP | -0.226
105 | RRIRQRPPRLPRPRPRPNYRPRP | 0.0444
106 | RRIRQRPPRLPRPRPRPPCMPRP | -0.0968
107 | RRIRQRPPRLPRPRPRPPCTPRP | -0.0301
108 | RRIRQRPPRLPRPRPRPPDLPRP | 0.404
109 | RRIRQRPPRLPRPRPRPPEDPRP | 0.0255
110 | RRIRQRPPRLPRPRPRPPESPRP | 0.528
111 | RRIRQRPPRLPRPRPRPPFNPRP | -0.159
112 | RRIRQRPPRLPRPRPRPPHYPRP | 0.37
113 | RRIRQRPPRLPRPRPRPPIDPRP | 0.00417
114 | RRIRQRPPRLPRPRPRPPILPRP | -0.13
115 | RRIRQRPPRLPRPRPRPPKPPRP | -0.0724
116 | RRIRQRPPRLPRPRPRPPLLPRP | -0.114
117 | RRIRQRPPRLPRPRPRPPLMPRP | 0.179
118 | RRIRQRPPRLPRPRPRPPLRPRP | 0.49
119 | RRIRQRPPRLPRPRPRPPMYPRP | -0.269
120 | RRIRQRPPRLPRPRPRPPPDPRP | 0.701
121 | RRIRQRPPRLPRPRPRPPPNPRP | 0.508
122 | RRIRQRPPRLPRPRPRPPPWPRP | 0.981
123 | RRIRQRPPRLPRPRPRPPQTPRP | 0.33
124 | RRIRQRPPRLPRPRPRPPRQPRP | 0.101
125 | RRIRQRPPRLPRPRPRPPYHPRP | -0.208

Row | Sequence | shrunken log2 fold change
126 | RRIRQRPPRLPRPRPRPPYRPRP | 0.158
127 | RRIRQRPPRLPRPRPRPQASPRP | 0.0433
128 | RRIRQRPPRLPRPRPRPQCHPRP | -0.0344
129 | RRIRQRPPRLPRPRPRPQCSPRP | -0.203
130 | RRIRQRPPRLPRPRPRPQIEPRP | -0.0133
131 | RRIRQRPPRLPRPRPRPQKFPRP | -0.283
132 | RRIRQRPPRLPRPRPRPQKNPRP | -0.297
133 | RRIRQRPPRLPRPRPRPQKQPRP | 0.057
134 | RRIRQRPPRLPRPRPRPQKYPRP | -0.517
135 | RRIRQRPPRLPRPRPRPQLCPRP | -0.0247
136 | RRIRQRPPRLPRPRPRPQLFPRP | 0.0846
137 | RRIRQRPPRLPRPRPRPQLPPRP | -0.23
138 | RRIRQRPPRLPRPRPRPQMCPRP | 0.109
139 | RRIRQRPPRLPRPRPRPQMGPRP | -0.553
140 | RRIRQRPPRLPRPRPRPQNFPRP | -0.0918
141 | RRIRQRPPRLPRPRPRPQNHPRP | -0.481
142 | RRIRQRPPRLPRPRPRPQPKPRP | 0.0658
143 | RRIRQRPPRLPRPRPRPQQDPRP | 0.206
144 | RRIRQRPPRLPRPRPRPQRMPRP | -0.0094
145 | RRIRQRPPRLPRPRPRPQSGPRP | -0.0474
146 | RRIRQRPPRLPRPRPRPQTCPRP | 0.0348
147 | RRIRQRPPRLPRPRPRPQVFPRP | 0.131
148 | RRIRQRPPRLPRPRPRPQWAPRP | 0.142
149 | RRIRQRPPRLPRPRPRPQWCPRP | 0.142
150 | RRIRQRPPRLPRPRPRPQWKPRP | -0.0075

Source: the supplement of paper PMC9112550, “Optimization of the antimicrobial peptide Bac7 by deep mutational scanning” (BMC Biology, 2022)
